PMC12581942, “EIN3-binding F-box protein SlEBF3 modulates resistance against Botrytis cinerea and carotenoid biosynthesis by degradation of BBX20 in tomato”

Target: SlTAGL1-His (Solanum lycopersicum, UniProt E9JUM2 1-269)
Experiment: EMSA; not given; Beyotime EMSA/Gel-Shift kit and Thermo LightShift Chemiluminescent EMSA kit
Conditions: protein: recombinant; tags: His (pET28a); chain copies: 2; label: biotin 3'; blunt

SlTAGL1-His, sequence (E9JUM2 entry or part of it): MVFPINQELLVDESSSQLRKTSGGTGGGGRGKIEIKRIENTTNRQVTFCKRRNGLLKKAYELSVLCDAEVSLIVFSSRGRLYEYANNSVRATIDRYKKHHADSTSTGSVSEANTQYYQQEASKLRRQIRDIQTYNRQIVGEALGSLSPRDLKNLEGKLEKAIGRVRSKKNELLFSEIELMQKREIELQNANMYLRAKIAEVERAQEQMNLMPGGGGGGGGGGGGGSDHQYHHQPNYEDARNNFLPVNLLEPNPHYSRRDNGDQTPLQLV

B1: SlPSY1 promoter probe (dsDNA)
DNA 1: GAATTGAGCACTTGGCTTTTGTATATAGCTTCTATGTGTACCAAAATT
DNA 2: AATTTTGGTACACATAGAAGCTATATACAAAAGCCAAGTGCTCAATTC
  binding result: binds
